Changes are numbered by the printed parent chain. Values joined by “and” are separate entries in the source; they are usually repeats but may differ in a detail not shown here. Equal entries are not always repeated.
B1: H18 (antibody, V domains shown)
VH: QVQLQESGPGLVKPSETLSLTCTVSGGSVSSGGYFWSWIRQPPGKGLEWIGCIYYSGSTNYNPSLKSRVTISVDTSKDQFSLKLSSVTAADTAVYYCARQLWLRGRFDYWGQGTLVTVSS
VL: NFMLTQPHSVSESPGKTVTISCTRSSGSIASNYVQWYQQRPGSSPTTVIYEDNQRPSGVPDRFSGSIDSSSNSASLTISGLKTEDEADYYCQSYDSSNVVFGGGTKLTVL
notes: human IgG1
B2: R1-26 (antibody, V domains shown)
VH: EVQLVESGGGLVQPGGSLRLSCAASGFTFSSYWMSWVRQAPGKGLEWVANIKQDGSEKYYVDSVKGRFTISRDNAKNSLYLQMNSLRAEDTAVYYCARGQLGPWVGVDYWGQGTLVTVSS
VL: B1 VL with R24G, S44A, V99W, K106Q
B3: S2A4 (antibody, V domains shown)
VH: EVQLVESGGGLVQPGGSLRLSCAASGFTFSSYWMNWVRQAPGKGLEWVANIKQDGSEKYYVDSVKGRFTISRDNAKNSLFLQMNSLRAEDTAVYYCARVWWLRGSFDYWGQGTLVTVSS
VL: NFMLTQPHSVSESPGKTVTISCTGSSGSIASNYVQWYQQRPGSAPTTVIYEDNQRPSGVPDRFSGSIDSSSNSASLTISGLKTEDEADYYCQSYDSSNHVVFGGGTKLTVL

The binders below were run against SARS-CoV-2 RBD (WT) (SARS-CoV-2 Wuhan-Hu-1 (wildtype), UniProt P0DTC2) (assay: BLI). Conditions: both partners purified.

Row | Binder | Kd | koff | kon
1 | B1 | 29.5 nM and 29 nM | 0.00931 s⁻¹ and 0.0162 s⁻¹ | 316000 M⁻¹ s⁻¹ and 560000 M⁻¹ s⁻¹
2 | B2 | 5.75 nM | 0.00291 s⁻¹ | 507000 M⁻¹ s⁻¹
3 | B3 | 25.3 nM | 0.0096 s⁻¹ | 380000 M⁻¹ s⁻¹
